# According to patent US20180214569A1 (Regeneron, published 2018):
# T1: LukD (GS) (Staphylococcus aureus, UniProt O54082 27-327)
# T1 sequence: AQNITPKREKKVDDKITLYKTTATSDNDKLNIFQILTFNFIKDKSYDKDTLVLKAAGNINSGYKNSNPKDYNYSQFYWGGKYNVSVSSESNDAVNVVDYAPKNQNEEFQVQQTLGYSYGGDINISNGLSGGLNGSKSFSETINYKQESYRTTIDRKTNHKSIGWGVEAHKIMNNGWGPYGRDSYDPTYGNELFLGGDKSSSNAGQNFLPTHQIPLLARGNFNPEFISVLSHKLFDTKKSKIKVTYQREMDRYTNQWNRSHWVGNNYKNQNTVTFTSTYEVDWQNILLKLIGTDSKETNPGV
# T2: HlgB (GS) (Staphylococcus aureus, UniProt P0A077 26-325)
# T2 sequence: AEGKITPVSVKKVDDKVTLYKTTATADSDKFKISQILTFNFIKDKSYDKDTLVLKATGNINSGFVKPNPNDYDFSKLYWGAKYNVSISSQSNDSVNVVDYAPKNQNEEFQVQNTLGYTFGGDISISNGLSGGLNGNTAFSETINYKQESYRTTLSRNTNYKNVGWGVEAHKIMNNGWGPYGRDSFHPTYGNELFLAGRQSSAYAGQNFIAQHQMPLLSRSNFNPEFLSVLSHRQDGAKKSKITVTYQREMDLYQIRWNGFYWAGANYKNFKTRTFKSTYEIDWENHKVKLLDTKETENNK
# Experiments:
# [1] = biological target: S. aureus delta toxin (Staphylococcus aureus, UniProt P0C1V1 1-26); assay: ELISA, plate coated with toxin component
# Description: (§1) MaxiSorp microtiter plates were coated overnight with 10 μg/mL of individual F-components of S. aureus bicomponent toxins per well. Recombinant toxin components were either obtained from IBT BioServices (Gaithersburg, Md.) or generated by GenScript (Piscataway Township, N.J.). […] Wells were washed 3 times and then incubated with 100 ng/mL anti-human HRP secondary antibody per well for one hour at 25° C. 100 μL of SuperSignal ELISA Pico Chemiluminescent Substrate, (ThermoFisher Scientific) was added to the wells and signal was detected (Victor X3 plate reader, Perkin Elmer). Luminescence values were analyzed by a three-parameter logistic equation over an 11-point response curve (GraphPad Prism). Isotype-matched irrelevant control antibody and S. aureus delta toxin were included as controls.
# [2] = biological target: T3, LukF (GS) (Staphylococcus aureus); assay: ELISA, plate coated with toxin component, chemiluminescence
# T3 construct: also called LukF-PV; F-component LukF from GenScript
# Description: as §1
# [3] = biological target: T4, LukF (IBT) (Staphylococcus aureus); assay: as above
# T4 construct: also called LukF-PV; F-component LukF from IBT BioServices
# Description: as §1
# [4] = biological target: T1, LukD (GS); assay: as above
# Description: as §1
# [5] = biological target: T2, HlgB (GS); assay: as above
# Description: as §1
# [6] = biological target: T1, LukD (GS); assay: ELISA, plate coated with toxin component
# Description: as §1
# [7] = biological target: T2, HlgB (GS); assay: ELISA, plate coated with toxin component
# Description: as §1
Binder,binding result [1],EC50 [2],EC50 [3],EC50 [4],EC50 [5],binding result [6],binding result [7]
"H1H15381P (antibody, V domains shown) VH: EVQLVESGGGLVQPGGSLRLSCAASGFTFSRYDMHWVRQVTGKGLEWVSVIGTAGDTYYPDSVKGRFTISRENAKNSLSLQMNSLRAGDTAVYYCTRSYNWNFPFGYWGQGTLVTVSS VL: DIQMTQSPSTLSASVGDRVTITCRASQSISSWLAWYQQKPGKAPRLLIYEASSLETGVPSRFSGSGSGTEFTLTISSLQPDDFATYYCQQYNRYPWTFGQGTKVEIK",no binding (tested: titration 50 uM-100 pM),66.7 nM,165 nM,59.6 nM,102 nM,,
"H1H15420P2 (antibody, V domains shown) VH: QVQLQESGLGLVKPSETLSLTCTVSGDSIGTYYWSWIRQPPGKGLEWIAYIYDSRHSNSNPSLKSRVTTSVDMSKNQFSLQLKSVTAADTAVYFCARDWGTWKPEGAFDIWGQGTMVTVSS VL: not shown",no binding (tested: titration 50 uM-100 pM),,,,,no binding (tested: titration 50 uM-100 pM),no binding (tested: titration 50 uM-100 pM)
"H1H15376P (antibody, V domains shown) VH: QVQLQQSGPGLVKPSQTLSLTCAISGDSVASNNAAWNWIRQSPSRGLEWLGRTYYRSKWFNDYVESVKSRISFNPDTSKNQFSLQLNSVTPEDTAVYYCARSYYDFWSGYSENNYYFYGMDVWGQGTTVTVSS VL: DIQMTQSPSSLSASVGDRVSITCRTSQGIRNDLGWYQQKPGKAPKRLIYAASSLQSGVPSRFSGSGSGTEFTLTISSLQPEDFATYYCLQHNIYPPTFGQGTKVEIK",no binding (tested: titration 50 uM-100 pM),,,,,no binding (tested: titration 50 uM-100 pM),no binding (tested: titration 50 uM-100 pM)
